Measurements reported in US20220090139A1.

Molecular target: integrin molecules on human cells (human)
Test: cell-based or functional assay

B1: RGD-Hoc, P18056 1-376 (protein)
chain: CDCRGDCFCSAMTFTVDITPKTPTGVIDETKQFTATPSGQTGGGTITYAWSVDNVPQDGAEATFSYVLKGPAGQKTIKVVATNTLSEGGPETAEATTTITVKNKTQTTTLAVTPASPAAGVIGTPVQFTAALASQPDGASATYQWYVDDSQVGGETNSTFSYTPTTSGVKRIKCVAQVTATDYDALSVTSNEVSLTVNKKTMNPQVTLTPPSINVQQDASATFTANVTGAPEEAQITYSWKKDSSPVEGSTNVYTVDTSSVGSQTIEVTATVTAADYNPVTVTKTGNVTVTAKVAPEPEGELPYVHPLPHRSSAYIWCGWWVMDEIQKMTEEGKDWKTDDPDSKYYLHRYTLQKMMKDYPEVDVQESRNGYIIHKTALETGIIYTYPKLAAALEHHHHHH
- luciferase activity: 5 fold
